Source: patent US20200024330A1

Assays:
[1] = target: HIV-1 92TH021 Env (on pseudovirus) (HIV-1); test: cell-based or functional assay
[2] = target: HIV-1 APV17 Env (on pseudovirus) (HIV-1); test: cell-based or functional assay
[3] = target: HIV-1 MGRM-C-026 Env (on pseudovirus) (HIV-1); test: cell-based or functional assay
[4] = target: HIV-1 MGRM-C-027 Env (on pseudovirus) (HIV-1); test: cell-based or functional assay
[5] = target: HIV-1 MGRM-C-028 Env (on pseudovirus) (HIV-1); test: cell-based or functional assay
[6] = target: HIV-1 envelope glycoprotein (Env) of isolate MGRM-C-020, on pseudovirus (HIV-1); test: cell-based or functional assay
[7] = target: HIV-1 envelope glycoprotein (Env) of isolate MGRM-C-024, on pseudovirus (HIV-1); test: cell-based or functional assay
[8] = target: HIV-1 envelope glycoprotein (Env) of isolate MGRM-C-028, on pseudovirus (HIV-1); test: cell-based or functional assay
[9] = target: aMLV envelope protein (on pseudovirus, negative control) (aMLV); test: cell-based or functional assay
[10] = target: HIV-1 Env of isolate MG RM-AG-013 (HIV-1); test: cell-based or functional assay
[11] = target: HIV-1 JRFL envelope glycoprotein (Env) on pseudovirus (HIV-1); test: cell-based or functional assay
[12] = target: HIV-1 MGRM-AG-005 envelope glycoprotein (Env) on pseudovirus (HIV-1); test: cell-based or functional assay
[13] = target: HIV-1 MGRM-Chronic-B-010 Env (pseudovirus) (HIV-1); test: cell-based or functional assay
[14] = target: HIV-1 APV17 envelope glycoprotein (Env) (HIV-1); test: cell-based or functional assay
[15] = target: HIV-1 JR-CSF Env G324A (HIV-1 isolate JR-CSF) (UniProt P20871); test: cell-based or functional assay
[16] = target: HIV-1 JR-CSF Env I424A (HIV-1 (isolate JR-CSF)) (UniProt P20871); test: cell-based or functional assay
[17] = target: HIV-1 JR-CSF Env N302A (HIV-1 JR-CSF) (UniProt P20871); test: cell-based or functional assay
[18] = target: HIV-1 JR-CSF Env N396A (HIV-1 (isolate JR-CSF)) (UniProt P20871); test: cell-based or functional assay
[19] = target: HIV-1 JR-CSF Env S306A (HIV-1 JR-CSF) (UniProt P20871); test: cell-based or functional assay
[20] = target: HIV-1 JR-CSF Env S387A (HIV-1 (isolate JR-CSF)) (UniProt P20871); test: cell-based or functional assay
[21] = target: HIV-1 JR-CSF Env V292A (HIV-1 JR-CSF) (UniProt P20871); test: cell-based or functional assay
[22] = target: HIV-1 JRFL envelope glycoprotein (Env) (HIV-1); test: cell-based or functional assay
[23] = target: JR-FL gp120 ΔV1/ΔV2 (HIV-1 (isolate JR-FL)); test: ELISA on coated gp120; EC50 by nonlinear regression
[24] = target: WT JR-FL gp120 (HIV-1 (isolate JR-FL)); test: as above
[25] = target: HIV-1 Env of isolate MGRM-D-024 (HIV-1); test: cell-based or functional assay
[26] = target: HIV-1 Env of isolate MGRM-D-026 (HIV-1); test: cell-based or functional assay
[27] = target: HIV-1 Env of isolate MGRM-F1-006 (HIV-1); test: cell-based or functional assay
[28] = target: HIV-1 Env of isolate MGRM-F1-008 (HIV-1); test: cell-based or functional assay
[29] = target: HIV-1 Env of isolate MGRM-F1-012 (HIV-1); test: cell-based or functional assay
[30] = target: HIV-1 94UG103 Env (pseudovirus) (HIV-1); test: cell-based or functional assay
[31] = target: HIV-1 MGRM-C-027 Env (pseudovirus) (HIV-1); test: cell-based or functional assay
[32] = target: HIV-1 MGRM-D-001 Env (pseudovirus) (HIV-1); test: cell-based or functional assay

PGT-141 (4964_G22; 4993_K13) (antibody), sequence (VH): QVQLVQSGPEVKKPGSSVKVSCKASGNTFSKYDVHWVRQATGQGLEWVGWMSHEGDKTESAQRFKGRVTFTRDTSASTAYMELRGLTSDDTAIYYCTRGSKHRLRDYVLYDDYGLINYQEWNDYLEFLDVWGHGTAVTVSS
PGT-141 (4964_G22; 4993_K13) (antibody), sequence (VL): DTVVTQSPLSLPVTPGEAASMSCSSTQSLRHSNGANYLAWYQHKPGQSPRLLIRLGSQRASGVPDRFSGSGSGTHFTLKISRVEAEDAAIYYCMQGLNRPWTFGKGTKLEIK
PGT-143 (4980_N08) (antibody), sequence (VH): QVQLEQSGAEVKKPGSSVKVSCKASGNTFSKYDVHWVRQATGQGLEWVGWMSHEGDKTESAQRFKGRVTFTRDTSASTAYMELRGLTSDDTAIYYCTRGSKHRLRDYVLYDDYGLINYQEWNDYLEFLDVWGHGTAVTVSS
PGT-143 (4980_N08) (antibody), sequence (VL): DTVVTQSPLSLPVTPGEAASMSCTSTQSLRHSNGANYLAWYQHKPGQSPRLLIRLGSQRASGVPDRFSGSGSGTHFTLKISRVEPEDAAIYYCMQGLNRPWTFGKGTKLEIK
PGT-144 (4970_K22) (antibody), sequence (VH): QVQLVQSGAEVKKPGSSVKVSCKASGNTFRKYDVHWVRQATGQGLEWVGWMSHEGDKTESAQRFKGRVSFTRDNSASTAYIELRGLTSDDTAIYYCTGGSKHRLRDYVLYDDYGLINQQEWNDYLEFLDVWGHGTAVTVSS
PGT-144 (4970_K22) (antibody), sequence (VL): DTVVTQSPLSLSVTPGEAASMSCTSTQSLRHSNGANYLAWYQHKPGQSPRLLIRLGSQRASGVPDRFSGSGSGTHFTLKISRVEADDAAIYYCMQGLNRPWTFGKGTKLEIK

Substance PGT-144 (4970_K22) (antibody) has an IC50 (ug/ml), pseudovirus neutralization [1] of 0.0934 µg/mL, an IC50 (ug/ml), pseudovirus neutralization [2] of 5.12 µg/mL and an IC50 (ug/ml), pseudovirus neutralization [3] of over 10 µg/mL. For the same substance, the IC50 (ug/ml), pseudovirus neutralization [4] was over 10 µg/mL, the IC50 (ug/ml), pseudovirus neutralization [5] was over 10 µg/mL and the IC50, pseudovirus neutralization [6] was 1.29 µg/mL. It also gave an IC50, pseudovirus neutralization [7] of 2.06 µg/mL, an IC50, pseudovirus neutralization [8] of over 50 µg/mL and an IC50 (ug/ml), pseudovirus neutralization [9] of over 10 µg/mL.

With PGT-143 (4980_N08) (antibody) the IC50 (ug/ml), pseudovirus neutralization [1] was 0.0028 µg/mL, the IC50 (ug/ml), pseudovirus neutralization [2] was 0.618 µg/mL and the IC50 (ug/ml), pseudovirus neutralization [3] was over 10 µg/mL. The IC50 (ug/ml), pseudovirus neutralization [4] was 0.505 µg/mL, the IC50 (ug/ml), pseudovirus neutralization [5] was 1.82 µg/mL and the IC50, pseudovirus neutralization [6] was 0.797 µg/mL. It also gave an IC50, pseudovirus neutralization [7] of 0.05 µg/mL, an IC50, pseudovirus neutralization [8] of 12.4 µg/mL and an IC50 (ug/ml), pseudovirus neutralization [9] of over 10 µg/mL.

5123_A06 (PGT-125) (antibody) was tested, and the neutralization IC50 [10] was 0.004 µg/mL, the IC50 (ug/ml), neutralizing activity [11] was 0.0156 µg/mL and the neutralization IC50 [11] was 0.0156 µg/mL. For the same substance, the neutralization IC80 [11] was 0.0462 µg/mL, the neutralization IC90 [11] was 0.0873 µg/mL and the neutralization IC95 [11] was 0.157 µg/mL. It also gave an IC50 (ug/ml), neutralizing activity [12] of over 10 µg/mL, a neutralization IC50 [12] of over 10 µg/mL and a neutralization IC80 [12] of over 10 µg/mL. The neutralization IC90 [12] was over 10 µg/mL, the neutralization IC95 [12] was over 10 µg/mL and the IC50, pseudovirus neutralization [13] was 0.006 µg/mL.

PGT-122 (antibody) showed an IC50 neutralization [14] of 0.522 µg/mL, a Fold IC50 increase relative to wild-type [15] of 12.5 fold and a Fold IC50 increase relative to wild-type [16] of 0.8 fold. It also gave a Fold IC50 increase relative to wild-type [17] of 1.1 fold, a Fold IC50 increase relative to wild-type [18] of 1.1 fold and a Fold IC50 increase relative to wild-type [19] of 0.5 fold. The Fold IC50 increase relative to wild-type [20] was 0.9 fold, the Fold IC50 increase relative to wild-type [21] was 1.3 fold and the IC50 neutralization [22] was 0.0471 µg/mL. The EC50 [23] was 0.3 µg/mL and the EC50 [24] was 0.3 µg/mL.

In the case of VRC01 (antibody), the IC50, pseudovirus neutralization [25] is reported as 0.366 µg/mL, the IC50, pseudovirus neutralization [26] is reported as 0.435 µg/mL and the IC50, pseudovirus neutralization [27] is reported as 2.86 µg/mL. The IC50, pseudovirus neutralization [28] was 1.11 µg/mL, the IC50, pseudovirus neutralization [29] was 0.488 µg/mL and the IC50, pseudovirus neutralization [6] was 0.396 µg/mL. For the same substance, the IC50, pseudovirus neutralization [7] was 3.4 µg/mL and the IC50, pseudovirus neutralization [8] was 0.319 µg/mL.

5141_B17 (PGT-126) (antibody) was tested, and the IC50 [30] was 0.0091 µg/mL, the IC80 [30] was 0.0316 µg/mL and the IC90 [30] was 0.0655 µg/mL. The IC95 [30] was 0.128 µg/mL, the neutralization IC50 [10] was 0.008 µg/mL and the IC50 (ug/ml), neutralizing activity [11] was 0.014 µg/mL. The IC50 (ug/ml), neutralizing activity [12] was 1.35 µg/mL, the IC50 [31] was 1.14 µg/mL and the IC80 [31] was over 10 µg/mL. For the same substance, the IC90 [31] was over 10 µg/mL, the IC95 [31] was over 10 µg/mL and the IC50, pseudovirus neutralization [13] was 0.005 µg/mL. The IC50 [32] was 0.0639 µg/mL, the IC80 [32] was 0.333 µg/mL and the IC90 [32] was 0.832 µg/mL. It also gave an IC95 [32] of 1.8 µg/mL.

PGT-141 (4964_G22; 4993_K13) (antibody) showed an IC50 (ug/ml), pseudovirus neutralization [1] of 0.0019 µg/mL, an IC50 (ug/ml), pseudovirus neutralization [2] of 0.616 µg/mL and an IC50 (ug/ml), pseudovirus neutralization [3] of over 10 µg/mL. For the same substance, the IC50 (ug/ml), pseudovirus neutralization [4] was 0.822 µg/mL, the IC50 (ug/ml), pseudovirus neutralization [5] was 2.35 µg/mL and the IC50, pseudovirus neutralization [6] was 1.34 µg/mL. For the same substance, the IC50, pseudovirus neutralization [7] was 0.101 µg/mL, the IC50, pseudovirus neutralization [8] was 13.8 µg/mL and the IC50 (ug/ml), pseudovirus neutralization [9] was over 10 µg/mL.

For 4838_L06 (PGT-121) (antibody), the neutralization IC80 [30] was 8.85 µg/mL, the neutralization IC80 [31] was 0.0829 µg/mL and the neutralization IC90 [31] was 0.374 µg/mL. It also gave a neutralization IC95 [31] of 3.14 µg/mL, a neutralization IC80 [32] of 3.29 µg/mL and a neutralization IC90 [32] of 6.26 µg/mL. The neutralization IC95 [32] was 9.39 µg/mL.

In the case of 4858_P08 (PGT-123) (antibody), the neutralization IC50 [10] is reported as 3.37 µg/mL, the IC50 (ug/ml), neutralizing activity [11] is reported as 0.0283 µg/mL and the IC50, pseudovirus neutralization [11] is reported as 0.0283 µg/mL. For the same substance, the IC80, pseudovirus neutralization [11] was 0.0904 µg/mL, the IC90 (pseudovirus neutralization) [11] was 0.178 µg/mL and the IC95, pseudovirus neutralization [11] was 0.332 µg/mL. The IC50 (ug/ml), neutralizing activity [12] was 0.104 µg/mL, the IC50, pseudovirus neutralization [12] was 0.104 µg/mL and the IC80, pseudovirus neutralization [12] was 1.28 µg/mL. The IC90 (pseudovirus neutralization) [12] was 6.38 µg/mL, the IC95, pseudovirus neutralization [12] was over 10 µg/mL and the IC50, pseudovirus neutralization [13] was 0.009 µg/mL.
